Data: patent US7544661 (NORTHWESTERN UNIVERSITY, dated 2009)
Ends that are not written are not given here. Asp(CONHC12) = Asp whose side chain is modified with dodecylamine

B1: Asp(CONHC12)-Val-Val-Val-Val-Val-Val-Lys-Lys-Lys-Ser-Gly-Gly-Gly-Tyr-Pro-Val-His-Pro-Ser-Thr (9) (peptide)
peptide: {Asp(CONHC12)}-VVVVVVKKKSGGGYPVHPST
modifications: also: reverse polarity: Asp(CONHC12) built on Rink amide resin, end direction unclear
B2: GKYPPTS (peptide)
peptide: GKYPPTS
notes: Tested as M13 phage clone
B3: VYRHLPT (peptide)
peptide: VYRHLPT
notes: Tested as M13 phage clone
B4: AWKSVTA (peptide)
peptide: AWKSVTA
notes: Tested as M13 phage clone
B5: RVSTWDT (peptide)
peptide: RVSTWDT
notes: Tested as M13 phage clone
B6: LPSPIQK (peptide)
peptide: LPSPIQK
notes: Tested as M13 phage clone
B7: PAPRWIH (peptide)
peptide: PAPRWIH
notes: Tested as M13 phage clone
B8: LPLGNSH (peptide)
peptide: LPLGNSH
notes: Tested as M13 phage clone
B9: RTTSPTA (peptide)
peptide: RTTSPTA
notes: Tested as M13 phage clone
B10: LRNYSHS (peptide)
peptide: LRNYSHS
notes: Tested as M13 phage clone
B11: PIQPDER (peptide)
peptide: PIQPDER
notes: Tested as M13 phage clone
B12: WPALFTH (peptide)
peptide: WPALFTH
notes: Tested as M13 phage clone
B13: PFDPPVR (peptide)
peptide: PFDPPVR
notes: Tested as M13 phage clone
B14: PGPTVQG (peptide)
peptide: PGPTVQG
notes: Tested as M13 phage clone
B15: DVSPAYH (peptide)
peptide: DVSPAYH
notes: Tested as M13 phage clone
B16: LHYPFMT (peptide)
peptide: LHYPFMT
notes: Tested as M13 phage clone
B17: KVPPANT (peptide)
peptide: KVPPANT
notes: Tested as M13 phage clone
B18: QQTQAQH (peptide)
peptide: QQTQAQH
notes: Tested as M13 phage clone
B19: YPVHPST (peptide)
peptide: YPVHPST
B20: KQALTQT (peptide)
peptide: KQALTQT

target: T1, recombinant human bone morphogenetic protein-2 (human, UniProt P12643 283-396); test: cell-based or functional assay
T1 sequence (P12643 283-396 limits assumed): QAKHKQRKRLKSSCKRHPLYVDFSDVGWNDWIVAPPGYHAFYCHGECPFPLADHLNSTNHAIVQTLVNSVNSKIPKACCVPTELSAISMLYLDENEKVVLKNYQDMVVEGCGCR

Binder | expression of osteocalcin in mesenchymal stem cells (western blot)
B1 | 0.5 ratio (binding gels : no binding gels)

target: T2, recombinant human transforming growth factor β1 (human, UniProt P01137 279-390); test: phage ELISA on coated growth factor, anti-M13-HRP; grade of relative binding strength, 1 highest to 4 lowest
T2 construct: Bought growth factor (Peprotech), physisorbed on microtiter wells for panning and ELISA; also called rh-TGF-β1; TGF-β1
T2 sequence (P01137 279-390 limits assumed): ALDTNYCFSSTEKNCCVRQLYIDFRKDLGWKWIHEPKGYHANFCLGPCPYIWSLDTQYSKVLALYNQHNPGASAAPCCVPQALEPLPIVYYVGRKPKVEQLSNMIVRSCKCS

Binder | binding result
B2 | binds
B3 | binds
B4 | binds
B5 | binds
B6 | binds
B7 | binds
B8 | binds
B9 | binds
B10 | binds

target: T1, recombinant human bone morphogenetic …; test: as above

Binder | binding result
B11 | binds
B12 | binds
B13 | binds
B14 | binds
B15 | binds
B16 | binds
B17 | binds
B18 | binds

target: T1, recombinant human bone morphogenetic …; test: fluorescence depolarization

Binder | Ka [M⁻¹]
B19 | 1.9e+06
B20 | 210000
